In publication PMC8807840 one finds fold inhibition of base editing by Ade1 data, which are given here for one molecule.

Test [1] has as its target A3A-CBE (A3A-nCas9-2xUGI).
Test [2] concerns the target A3Bctd-CBE (A3Bctd-nCas9-2xUGI).
In test [3] the target is A3Gctd-CBE (A3Gctd-nCas9-2xUGI).

B1: Ade1 (EBV-BORF2) (natural protein)
chain: MATTSHVEHELLSKLIDELKVKANSDPEADVLAGRLLHRLKAESVTHTVAEYLEVFSDKFYDEEFFQMHRDELETRVSAFAQSPAYERIVSSGYLSALRYYDTYLYVGRSGKQESVQHFYMRLAGFCASTTCLYAGLRAALQRARPEIESDMEVFDYYFEHLTSQTVCCSTPFMRFAGVENSTLASCILTTPDLSSEWDVTQALYRHLGRYLFQRAGVGVGVTGAGQDGKHISLLMRMINSHVEYHNYGCKRPVSVAAYMEPWHSQIFKFLETKLPENHERCPGIFTGLFVPELFFKLFRDTPWSDWYLFDPKDAGDLERLYGEEFEREYYRLVTAGKFCGRVSIKSLMFSIVNCAVKAGSPFILLKEACNAHFWRDLQGEAMNAANLCAEVLQPSRKSVATCNLANICLPRCLVNAPLAVRAQRADTQGDELLLALPRLSVTLPGEGAVGDGFSLARLRDATQCATFVVACSILQGSPTYDSRDMASMGLGVQGLADVFADLGWQYTDPPSRSLNKEIFEHMYFTALCTSSLIGLHTRKIFPGFKQSKYAGGWFHWHDWAGTDLSIPREIWSRLSERIVRDGLFNSQFIALMPTSGCAQVTGCSDAFYPFYANASTKVTNKEEALRPNRSFWRHVRLDDREALNLVGGRVSCLPEALRQRYLRFQTAFDYNQEDLIQMSRDRAPFVDQSQSHSLFLREEDAARASTLANLLVRSYELGLKTIMYYCRIEKAADLGVMECKASAALSVPREEQNERSPAEQMPPRPMEPAQVAGPVDIMSKGPGEGPGGWCVPGGLEVCYKYRQLFSEDDLLETDGFTERACESCQ
B1: the fold inhibition of base editing by Ade1 at the FANCF site, HEK293T cells (Fig. 2e) in the test with A3Gctd-L7B CBE chimera is 1.32 fold; in test [1], 1.06 fold; in the test with A3Gctd-L1B CBE chimera it was 5.67 fold; with A3A-L1B CBE chimera it was 3.26 fold; in the test with A3Bctd-L1A CBE chimera, 1.47 fold; in test [2], 5.2 fold. Also, the fold inhibition of base editing by Ade1 at the FANCF site, HEK293T cells (Fig. 2e) with A3Gctd-L1L7B CBE chimera came to 5.66 fold; with A3Bctd-L7G CBE chimera it was 1.06 fold; in [3], 0.96 fold.
